Experimental data taken from the nanobody polyreactivity screen of Harvey et al. (2022).

Experiment: yeast display, Sf9 membrane polyspecificity reagent, FACS + sequencing; frameworks hold sequencing errors
How it was run: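 Polyreactivity labels are assigned by the sorting gate from which each nanobody was recovered. The gates were low and high (top ~1%), set on anti-HA fluorescence for expression and streptavidin fluorescence for reagent binding. Before sorting, galactose-induced (36–48 hours) yeast display cells were stained for 1 hour at 4 °C with 10% biotinylated, detergent-solubilized Sf9 membrane reagent.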

Row | Sequence | polyreactivity (PSR sort gate)
1 | QVQLVESGGGLVQAGGSLRLSCAASGRIFGAYAMGWYIQAPGKERELVAAIDIRGGNTYYADSVKGRFTISRDNAKNTVYFQMNSQKPVDTAVYYCAADTWYDAYNYWGQGTQVTVSS | low polyreactivity
2 | QVQLVESGGGLVQAGGSLRLSCAASGRIFGAYAMGWYRQAPGKERELVAAITSAGSTHYADSVKGRFTISRDNAKNTVYLQMNCLKPQDTAVYYCAADRYPWPLQYVEYDSDYWGQGTQVTVSS | low polyreactivity
3 | QVQLVESGGGLVQAGGSLRLSCAASGRIFGAYAMGWYRQAPGKERELVAAITSRGGNTYYADSVKGRFTISRDTAKNTVYLQMNSLKPEDTAVYSCAARHDKRRQYYVGQSAFDYWGQGTQVTVSS | low polyreactivity
4 | QVQLVESGGGLVQAGGSLRLSCAASGRIFGAYAMGWYRQAPGKERELVATITSDGSTDYADSVKGRFTISRDNAKNTVYLQMNSLKPEDTAVYYCAVAYLWRPYDFREFDYWGQGTQVTVSS | low polyreactivity
5 | QVQLVESGGGLVQAGGSLRLSCAASGRIFGAYTMGWYRQEPGKERELVAAISDGGDTYYADSVKGRFTISRDNAKNTVYFQMNRVKPEDTAVYYCAADAPYYAYYWFPSSFGIYGYWGQGTQVTVSS | low polyreactivity
6 | QVQLVESGGGLVQAGGSLRLSCAASGRIFGDNAMGWYRQAPGKERELVAGIRWRADRTYYADSVKWRFTISRDNAKNTVYLQMNSLKPEDTAVYYCNVGSFTGHSYGFGYWGQGTQVTVSS | low polyreactivity
7 | QVQLVESGGGLVQAGGSLRLSCAASGRIFGDNTMGWYRQAPGKERELVAAISFTGGSTYYADSVKGRFTISRDNAKNTVYLQMNSLKPEDTAVYYCNADWVSTWGYDYWGQGTQVTVSS | low polyreactivity
8 | QVQLVESGGGLVQAGGSLRLSCAASGRIFGDYAKGWYRQAPGKERELVAAIRFDTGSTYYADSVKGRFTISRDTAKNTVYLQMNSLKPEDTAVYYCAAQHRGVQVTFGEYDYWGQGTQVTVSS | low polyreactivity
9 | QVQLVESGGGLVQAGGSLRLSCAASGRIFGDYAMGGSRQAPGKERELVAVISVGGRTSYADSVKGRFTISRDNAKNTVYLQMNSLKPEDTAVYYCATRLSTRDGGYWGQGTQVTVSS | low polyreactivity
10 | QVQLVESGGGLVQAGGSLRLSCAASGRIFGDYAMGWYRQAPGKEMELVAAITSAGSTHYADSVKGRFTISRDNAKNTVYLQMNILKPDDTAVYYCAADGIARAYVLFDAYDFLYDYWGQGTHVTVSS | low polyreactivity
11 | QVQLVESGGGLVQAGGSLRLSCAASGRIFGDYGMGWYRQAPGKERELVAAITDRGGTTYYADSVKGRFTISRDNAKNTVYLQMNSLKPEDTAVYYCNARQSDIFDYDYWGQGTQVTVSS | low polyreactivity
12 | QVQLVESGGGLVQAGGSLRLSCAASGRIFGEKAMGWYRQAPGKERELVADITWSGTSTYYADSVKGRFTISRDNAKNTVYLQMNSLKPEDTAVYYCAASATLFSSRGKRYYWGQGTQVTVSS | low polyreactivity
13 | QVQLVESGGGLVQAGGSLRLSCAASGRIFGENAMGWYRQAPGKEWEFVAVISISDASTYYADSVKGRFTISRDNAKNSVDFQMNSLKPEDTAVYYCAADLTDFLYVASDYWGQGTQVTVSS | low polyreactivity
14 | QVQLVESGGGLVQAGGSLRLSCAASGRIFGFNARGWYRQAPGKERELVAGITDSSGRTNYADSVKGRFTISRDNAKNTVYLQMNSLKPEDTAVYYCARRRFGQYTERYYWGQGTQVTVSS | low polyreactivity
15 | QVQLVESGGGLVQAGGSLRLSCAASGRIFGFYVMGWYRQAPGKERELVAAISSRGGSTYYADSVKGRFTISRDNAKNTVYLQMNSLKPEDTAVYYCAASVYREYYDNDDYWGQGTQVTVSS | high polyreactivity
16 | QVQLVESGGGLVQAGGSLRLSCAASGRIFGGNAMGWYRQAPGKERELVAAISKRGGSTYYADSVKGRFTISRDNAKNTVYLQMNSLKPEDTAVYYCAAGFTAWTGVWYGYWGQGTQVTVSS | high polyreactivity
17 | QVQLVESGGGLVQAGGSLRLSCAASGRIFGGYAMGWYRQAPGKERELVAAISSSGGRTYYADSVKGRFTISRDNAKNTVYLQMKSLKPEDTAVYYCNAGAGQRVSGHSFEYWGQGTQVTVSS | high polyreactivity
